Reference: doi:10.1101/699967 (bioRxiv, 2019)

Molecular target: HaloTag-Brd4-BD1_BD2-NanoLuc (aa 44-460) (human, UniProt O60885 44-460, HaloTag NanoBRET 618 fluorescent ligand on the HaloTag (experimental samples))
Assay: FRET or BRET

SGRGKGGKGLGKGGAKRHR (acetyl-lysine at 5, 8 and 16) [H4(1-19)K5/8/16-triacetyl histone peptide]
EC50: 7.5 ± 3.5 µM
